In one data set the target is T1, CapR (Vibrio cholerae phage satellite PLE1, UniProt M1R2X8 1-139).
T1 sequence: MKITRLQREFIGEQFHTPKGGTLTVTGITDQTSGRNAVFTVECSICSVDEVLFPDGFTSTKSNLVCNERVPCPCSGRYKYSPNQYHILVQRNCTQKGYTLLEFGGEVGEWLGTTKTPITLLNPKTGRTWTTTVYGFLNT
The experiment in a line: EMSA.

For data set [1], the target named is T2, CapR C43/46/72/74S (4xmut) (Vibrio cholerae phage satellite PLE1, UniProt M1R2X8 1-139, C43S;C46S;C72S;C74S).
T2 sequence: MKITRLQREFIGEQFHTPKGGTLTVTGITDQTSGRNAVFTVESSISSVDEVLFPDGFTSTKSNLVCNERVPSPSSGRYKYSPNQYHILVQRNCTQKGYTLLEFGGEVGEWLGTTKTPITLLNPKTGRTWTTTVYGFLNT
In words: EMSA. (A gel shift assay detects complexes by their altered migration in electrophoresis.)

B1: probe F (dsDNA)
DNA 1: AATAATCGTTCGCAACAACAAATATTACAAT
DNA 2: ATTGTAATATTTGTTGTTGCGAACGATTATT
As to B1, in the data set with CapR, the binding result is “binds”.

B2: probe D (dsDNA)
DNA 1: AATAATCGTTCGCAACAACAAATATTACAATTATTAATGCAAACGACATATTTATTTAAATTA
DNA 2: TAATTTAAATAAATATGTCGTTTGCATTAATAATTGTAATATTTGTTGTTGCGAACGATTATT
As to B2, the binding result with CapR was “binds”; in data set [1], “no binding”.

These data come from article PMC8096241.
